16 sequences from US20090143319 can be followed below.

One series has as its system NF-kB. Briefly: cell_activity. The conditions noted are these: NF-kB SEAP reporter, 0.1 uM.
The next series concerns the target NF-kB p65 (RelA) (UniProt Q04206). Briefly: competition. The conditions noted are these: unit not given.

NF-kB p65 (RelA), sequence (Q04206 whole entry): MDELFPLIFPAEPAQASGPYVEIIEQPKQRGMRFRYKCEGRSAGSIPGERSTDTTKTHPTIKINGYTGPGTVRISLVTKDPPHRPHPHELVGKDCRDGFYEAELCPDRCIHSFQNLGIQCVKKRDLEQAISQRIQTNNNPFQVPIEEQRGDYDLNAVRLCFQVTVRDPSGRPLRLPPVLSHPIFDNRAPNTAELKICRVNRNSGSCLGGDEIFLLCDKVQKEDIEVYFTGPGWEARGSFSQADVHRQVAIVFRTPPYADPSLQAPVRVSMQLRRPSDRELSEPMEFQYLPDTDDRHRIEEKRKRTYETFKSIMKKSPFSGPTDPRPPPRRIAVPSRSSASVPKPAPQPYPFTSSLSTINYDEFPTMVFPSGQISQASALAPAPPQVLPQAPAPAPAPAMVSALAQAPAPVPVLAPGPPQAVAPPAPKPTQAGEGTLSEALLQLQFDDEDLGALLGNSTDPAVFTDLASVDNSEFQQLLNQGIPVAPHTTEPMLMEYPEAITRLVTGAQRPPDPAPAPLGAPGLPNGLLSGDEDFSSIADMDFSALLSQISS

“CCTTGAGGGGATTTCCCCCC (double strand) [SEQ-9]” gave an activity in the series on NF-kB (PS (*): C*C*TTG*A*GGGGATTT*C*CCCCC / antisense 5'-G*G*GGGGAAA*T*C*CCCTCAAGG) of 70 % inhibition. “TTGAGGGGATTTCCCC (double strand) [SEQ-37]” displayed an activity in the series on NF-kB (PS (*): T*T*G*A*GGGGATTT*C*CCC / antisense 5'-G*G*GGAAA*T*C*CCCTCAA) of 75 % inhibition. In turn, “AGTTGAGGGGATTTCCCCAGGC (double strand) [SEQ-A]” showed an IC50 with NF-kB p65 (RelA) (ELISA competition with immobilized NF-kB site, room temperature) of 1.51. As for “ACCAGGGGATTTCCCCGTCCCAC (double strand) [SEQ-G]”, the IC50 with NF-kB p65 (RelA) worked out at 1.71. Sequence “AGCTGGGGATTTCCCCTTTG (double strand) [SEQ-F]” showed an IC50 in the series with NF-kB p65 (RelA) of 3.4. Take GAGGGGATTTCCCC (double strand) [SEQ-34]: the activity in the series on NF-kB (PS (*): G*A*GGGGATTT*C*CCC / antisense 5'-G*GGGAAA*T*C*CCCTC) was determined as 99 % inhibition.

Sequence GAGGGGATTTCCCC (double strand) [SEQ-33] gave an activity in the series with NF-kB (PS (*): G*A*GGGGATTT*C*CCC / antisense 5'-GGGGAAA*T*C*CCCTC) of 70 % inhibition. In the case of “AGTATCGGGGATTTCCCCTTAAC (double strand) [SEQ-E]”, the IC50 with NF-kB p65 (RelA) is 1.91. “CCTTGAAGGGATTTCCCTCC (double strand) [SEQ-1]” showed an IC50 in the series with NF-kB p65 (RelA) (PS (*): C*C*TTGAAGG*G*A*TTTCCCT*C*C / G*G*AGGGAAA*T*C*CCTTCAA*G*G) of 0.84.

For “CCTTGAGGGGATTTCCCCCC (double strand) [SEQ-I-PS]”, the IC50 with NF-kB p65 (RelA) (PS at 2 bonds at each end of both strands) is 1.06. Turning to “CCTTGAAGGGATTTCCCTCC (double strand) [SEQ-x (full PS)]”, in the series with NF-kB p65 (RelA) (PS at all positions, both strands, 2.60 in Table 3), the IC50 was 3.97. Consider “TTGAGGGGATTTCCCC (double strand) [SEQ-38]”, for which the activity in the series with NF-kB (PS (*): TTG*A*GGGGATTT*C*CCC / antisense 5'-GGGGAAA*T*C*CCCTCAA) was 90 % inhibition. Turning to “AGTTGAGGGGATTTCCCCGC (double strand) [SEQ-H]”, the IC50 with NF-kB p65 (RelA) was found to be 1.08. Sequence “CCTTGAGGGGATTTCCCCCC (double strand) [SEQ-I]” showed an IC50 with NF-kB p65 (RelA) of 0.384. In the series on NF-kB (PS (*): T*TG*A*GGGGATTT*C*CCC / antisense 5'-G*GGGAAA*T*C*CCCTCAA), “TTGAGGGGATTTCCCC (double strand) [SEQ-36]” registered an activity of 80 % inhibition. Sequence GAGGGGATTTCCCC (double strand) [SEQ-35] registered an activity with NF-kB (PS (*): G*A*GGGGATTT*C*CCC / antisense 3'-CTCCC*C*T*AAAG*G*GGG (so in the source)) of 70 % inhibition.
